Results: publication PMC12742849 (Protein & Cell, 2025)

Tests used:
[1] = target: enolase, native, from Francisella novicida (Francisella novicida); test: cryo-EM structure
[2] = target: riboflavin biosynthesis protein D (RibD), native, from Francisella novicida (Francisella novicida); test: cryo-EM structure

Substance	stoichiometry N [1]	stoichiometry N [2]
enolase, native, from Francisella novicida (enzyme)	2	
riboflavin biosynthesis protein D (RibD), native, from Francisella novicida (enzyme)		2
